Measured values as given in article PMC7954794 (2021).

B1: S. cerevisiae Abp1 (full length; SH3 domain 535-592 mutated) / Hua2 (parent complex)
chain 1: MALEPIDYTTHSREIDAEYLKIVRGSDPDTTWLIISPNAKKEYEPESTGSSFHDFLQLFDETKVQYGLARVSPPGSDVEKIIIIGWCPDSAPLKTRASFAANFAAVANNLFKGYHVQVTARDEDDLDENELLMKISNAAGARYSIQTSSKQQGKASTPPVKKSFTPSKSPAPVSKKEPVKTPSPAPAAKISSRVNDNNDDDDWNEPELKERDFDQAPLKPNQSSYKPIGKIDLQKVIAEEKAKEDPRLVQKPTAAGSKIDPSSDIANLKNESKLKRDSEFNSFLGTTKPPSMTESSLKNDDDKVIKGFRNEKSPAQLWAERKAKQNSGNAETKAEAPKPEVPEDEPEGEPDVKDLKSKFEGLAASEKEEEEMENKFAPPPKKSEPTIISPKPFSKPQEPVKAEEAEQPKTDYKKIGNPLPGMHIEADNEEEPEENDDDWDDDEDEAAQPPLPSRNVASGAPVQKEEPEQEEIAPSLPSRNSIPAPKQEEAPEQAPEEEIEEEAEEAAPQLPSRSSAAPPPPPRRATPEKKPKENPWATAEYDYDAAEDNELTFVENDKIINIEFVDDDWWLGELEKDGSKGLFPSNYVSLGN
chain 2: MQQTKFGKMYLDHDSVVEYSEDEIVEADRITLGYKKRLSMIENQMRHLLEDFSLDVQQIEPILADLQKYYDAFLQLLQKRNKSLQCKRSTHQPVPSPMNSQTSTNAKVNLSGKLMKFQLNSVQKFDEENILRILQNKIEFEHYFQIDKGKKQKVLLLAVYQCLNGPTRLHKVLNIEGIIHNNSIRTILGKQVSSSKWTVFLYDVKLVLLAHRQDVPNLETSKMIVRYGDLFPCALYFKDHTAY

Variants of: B1
Assay: DHFR protein-fragment complementation in yeast (Abp1-DHFR F[1,2] x partner-DHFR F[3]), deep mutational scanning, second methotrexate selection vs reference; S. cerevisiae, DHFR-PCA selection in liquid with methotrexate at 30 C, two 72 h selections (the score uses the second); reference = the pre-selection culture

screen value	Variant
-1.27 DMS score: mean over two replicates of log2(f_test/f_ref + 0.5)/ln 2, minus the synonymous-codon median (not a log2 …	chain 1 MALEPIDYTTHSREIDAEYLKIVRGSDPDTTWLIISPNAKKEYEPESTGSSFHDFLQLFDETKVQYGLARVSPPGSDVEKIIIIGWCPDSAPLKTRASFAANFAAVANNLFKGYHVQVTARDEDDLDENELLMKISNAAGARYSIQTSSKQQGKASTPPVKKSFTPSKSPAPVSKKEPVKTPSPAPAAKISSRVNDNNDDDDWNEPELKERDFDQAPLKPNQSSYKPIGKIDLQKVIAEEKAKEDPRLVQKPTAAGSKIDPSSDIANLKNESKLKRDSEFNSFLGTTKPPSMTESSLKNDDDKVIKGFRNEKSPAQLWAERKAKQNSGNAETKAEAPKPEVPEDEPEGEPDVKDLKSKFEGLAASEKEEEEMENKFAPPPKKSEPTIISPKPFSKPQEPVKAEEAEQPKTDYKKIGNPLPGMHIEADNEEEPEENDDDWDDDEDEAAQPPLPSRNVASGAPVQKEEPEQEEIAPSLPSRNSIPAPKQEEAPEQAPEEEIEEEAEEAAPQLPSRSSAAPPPPPRRATPEKKPKENPWATAEYDYDAAEDNELTFVENDKIINIEFVNDDWWLGELEKDGSKGLFPSNYVSLGN [chain 1 D566N]
-0.248 DMS score: mean over two replicates of log2(f_test/f_ref + 0.5)/ln 2, minus the synonymous-codon median (not a log2 …	chain 1 MALEPIDYTTHSREIDAEYLKIVRGSDPDTTWLIISPNAKKEYEPESTGSSFHDFLQLFDETKVQYGLARVSPPGSDVEKIIIIGWCPDSAPLKTRASFAANFAAVANNLFKGYHVQVTARDEDDLDENELLMKISNAAGARYSIQTSSKQQGKASTPPVKKSFTPSKSPAPVSKKEPVKTPSPAPAAKISSRVNDNNDDDDWNEPELKERDFDQAPLKPNQSSYKPIGKIDLQKVIAEEKAKEDPRLVQKPTAAGSKIDPSSDIANLKNESKLKRDSEFNSFLGTTKPPSMTESSLKNDDDKVIKGFRNEKSPAQLWAERKAKQNSGNAETKAEAPKPEVPEDEPEGEPDVKDLKSKFEGLAASEKEEEEMENKFAPPPKKSEPTIISPKPFSKPQEPVKAEEAEQPKTDYKKIGNPLPGMHIEADNEEEPEENDDDWDDDEDEAAQPPLPSRNVASGAPVQKEEPEQEEIAPSLPSRNSIPAPKQEEAPEQAPEEEIEEEAEEAAPQLPSRSSAAPPPPPRRATPEKKPKENPWATAEYDYDAAEDNELTFVENDKIINIEFVDDDWWKGELEKDGSKGLFPSNYVSLGN [chain 1 L571K]

More lines, now with the values behind:

Variant	screen value
chain 1 MALEPIDYTTHSREIDAEYLKIVRGSDPDTTWLIISPNAKKEYEPESTGSSFHDFLQLFDETKVQYGLARVSPPGSDVEKIIIIGWCPDSAPLKTRASFAANFAAVANNLFKGYHVQVTARDEDDLDENELLMKISNAAGARYSIQTSSKQQGKASTPPVKKSFTPSKSPAPVSKKEPVKTPSPAPAAKISSRVNDNNDDDDWNEPELKERDFDQAPLKPNQSSYKPIGKIDLQKVIAEEKAKEDPRLVQKPTAAGSKIDPSSDIANLKNESKLKRDSEFNSFLGTTKPPSMTESSLKNDDDKVIKGFRNEKSPAQLWAERKAKQNSGNAETKAEAPKPEVPEDEPEGEPDVKDLKSKFEGLAASEKEEEEMENKFAPPPKKSEPTIISPKPFSKPQEPVKAEEAEQPKTDYKKIGNPLPGMHIEADNEEEPEENDDDWDDDEDEAAQPPLPSRNVASGAPVQKEEPEQEEIAPSLPSRNSIPAPKQEEAPEQAPEEEIEEEAEEAAPQLPSRSSAAPPPPPRRATPEKKPKENPWATAEYDYDAAEDNELTFVENDKIINIEFVDDDWWLGELEKDGSKGLFPNNYVSLGN [chain 1 S585N]	-0.135 DMS score: mean over two replicates of log2(f_test/f_ref + 0.5)/ln 2, minus the synonymous-codon median (not a log2 …
chain 1 MALEPIDYTTHSREIDAEYLKIVRGSDPDTTWLIISPNAKKEYEPESTGSSFHDFLQLFDETKVQYGLARVSPPGSDVEKIIIIGWCPDSAPLKTRASFAANFAAVANNLFKGYHVQVTARDEDDLDENELLMKISNAAGARYSIQTSSKQQGKASTPPVKKSFTPSKSPAPVSKKEPVKTPSPAPAAKISSRVNDNNDDDDWNEPELKERDFDQAPLKPNQSSYKPIGKIDLQKVIAEEKAKEDPRLVQKPTAAGSKIDPSSDIANLKNESKLKRDSEFNSFLGTTKPPSMTESSLKNDDDKVIKGFRNEKSPAQLWAERKAKQNSGNAETKAEAPKPEVPEDEPEGEPDVKDLKSKFEGLAASEKEEEEMENKFAPPPKKSEPTIISPKPFSKPQEPVKAEEAEQPKTDYKKIGNPLPGMHIEADNEEEPEENDDDWDDDEDEAAQPPLPSRNVASGAPVQKEEPEQEEIAPSLPSRNSIPAPKQEEAPEQAPEEEIEEEAEEAAPQLPSRSSAAPPPPPRRATPEKKPKENPWATAEYDYDAAEDNELTFVENDKIINIEFVDDDWWLGELYKDGSKGLFPSNYVSLGN [chain 1 E575Y]	-0.704 DMS score: mean over two replicates of log2(f_test/f_ref + 0.5)/ln 2, minus the synonymous-codon median (not a log2 …
chain 1 MALEPIDYTTHSREIDAEYLKIVRGSDPDTTWLIISPNAKKEYEPESTGSSFHDFLQLFDETKVQYGLARVSPPGSDVEKIIIIGWCPDSAPLKTRASFAANFAAVANNLFKGYHVQVTARDEDDLDENELLMKISNAAGARYSIQTSSKQQGKASTPPVKKSFTPSKSPAPVSKKEPVKTPSPAPAAKISSRVNDNNDDDDWNEPELKERDFDQAPLKPNQSSYKPIGKIDLQKVIAEEKAKEDPRLVQKPTAAGSKIDPSSDIANLKNESKLKRDSEFNSFLGTTKPPSMTESSLKNDDDKVIKGFRNEKSPAQLWAERKAKQNSGNAETKAEAPKPEVPEDEPEGEPDVKDLKSKFEGLAASEKEEEEMENKFAPPPKKSEPTIISPKPFSKPQEPVKAEEAEQPKTDYKKIGNPLPGMHIEADNEEEPEENDDDWDDDEDEAAQPPLPSRNVASGAPVQKEEPEQEEIAPSLPSRNSIPAPKQEEAPEQAPEEEIEEEAEEAAPQLPSRSSAAPPPPPRRATPEKKPKENPWATAEYDYDAAEDNELTFVENDKIINIEFVDDDWWLGELEKDMSKGLFPSNYVSLGN [chain 1 G578M]	-0.96 DMS score: mean over two replicates of log2(f_test/f_ref + 0.5)/ln 2, minus the synonymous-codon median (not a log2 …
